# Measured values: patent publication US20200079850A1 (SUTRO BIOPHARMA, published 2020)
# Where a chain is given by its changes, count along the chain named.
# T1: recombinant human LAG3 protein (rhLAG3), HIS-tagged (ACRO) or biotinylated (R&D Cat #2319-C3) (human, UniProt P18627 23-450, biotinylated in part of the assays)
# T1 sequence: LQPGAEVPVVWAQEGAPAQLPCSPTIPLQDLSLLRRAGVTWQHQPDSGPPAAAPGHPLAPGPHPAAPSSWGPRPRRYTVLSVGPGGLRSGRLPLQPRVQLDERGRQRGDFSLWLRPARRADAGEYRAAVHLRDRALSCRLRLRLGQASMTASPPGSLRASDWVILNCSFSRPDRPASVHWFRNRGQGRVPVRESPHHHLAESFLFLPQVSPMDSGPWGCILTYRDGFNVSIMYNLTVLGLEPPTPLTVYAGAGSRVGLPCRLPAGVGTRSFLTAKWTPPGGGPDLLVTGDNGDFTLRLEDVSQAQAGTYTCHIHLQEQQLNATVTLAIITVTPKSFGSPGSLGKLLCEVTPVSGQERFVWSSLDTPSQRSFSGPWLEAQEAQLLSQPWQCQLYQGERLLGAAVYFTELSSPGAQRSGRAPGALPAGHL
# T2: human LAG3 expressed on the cell surface (CHO-LAG3, 293T-LAG3 cells) (human, UniProt P18627 23-525)
# T2 construct: Stably transfected CHO or HEK293T cells; also called Human LAG3 (CHO); Human LAG3 (293T)
# T2 sequence: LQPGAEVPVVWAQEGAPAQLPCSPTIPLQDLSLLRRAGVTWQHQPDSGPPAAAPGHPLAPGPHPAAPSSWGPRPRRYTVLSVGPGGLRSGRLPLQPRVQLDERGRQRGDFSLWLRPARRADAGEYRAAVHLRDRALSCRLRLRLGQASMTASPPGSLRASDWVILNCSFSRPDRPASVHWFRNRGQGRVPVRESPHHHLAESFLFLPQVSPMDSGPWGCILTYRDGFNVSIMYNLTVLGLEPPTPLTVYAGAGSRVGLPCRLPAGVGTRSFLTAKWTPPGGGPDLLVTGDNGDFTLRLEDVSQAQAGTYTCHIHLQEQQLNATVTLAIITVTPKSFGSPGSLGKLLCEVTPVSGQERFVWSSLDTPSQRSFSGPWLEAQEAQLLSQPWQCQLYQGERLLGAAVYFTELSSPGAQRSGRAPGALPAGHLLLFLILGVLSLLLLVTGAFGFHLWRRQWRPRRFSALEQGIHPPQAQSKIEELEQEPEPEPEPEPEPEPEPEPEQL
# T3: human LAG3-Fc (R&D Systems #2319-L3) (human, UniProt P18627 23-450)
# T3 construct: Bought protein; also called Human LAG3 (Biacore)
# T3 sequence: T1 sequence
# B1: SRP1449-B03 (scFv, V domains shown)
# VH: QVQLVESGGGVVQPGRSLRLSCAASGFTFSSYGMHWVRQAPGKGLEWVAAIWYDASYKYYADSVKGRFTISRDNSKNTLYLQMNSLRAEDTAVYYCAREWAVASWDYALDVWGQGTTVTVSS
# VL: EIVLTQSPGTMSLSPGERATLSCRASQSVSSSYLAWYQQKPGQAPRLLIYGASSRATGIPDRFSGSGSGTDFTLTISRLEPEDFAVYYCQQYDRSPLTFGPGTKVDIK
# B2: SRP1449-B07 (scFv, V domains shown)
# VH: B1 VH with A50V, A55G, Y57N, A103S, A108G, L109M
# VL: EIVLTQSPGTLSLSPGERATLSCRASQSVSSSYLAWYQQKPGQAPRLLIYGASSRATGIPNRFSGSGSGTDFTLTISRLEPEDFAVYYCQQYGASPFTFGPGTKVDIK
# B3: 421.61.4.5G11 (antibody, V domains shown)
# VH: EVQLQQSGAELVRSGASVKLSCTASGFNIKDYYMHWVKQRPEQGLEWIAWIDPENGDTEYAPKFQGRATLTADTSSNTAYLHLSSLTSEDTAVYYCNAPDALDYWGQGTSVTVSS
# VL: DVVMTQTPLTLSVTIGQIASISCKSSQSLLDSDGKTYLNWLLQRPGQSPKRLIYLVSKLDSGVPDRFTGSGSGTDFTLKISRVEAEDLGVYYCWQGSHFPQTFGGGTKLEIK
# Target: T1, recombinant human LAG3 protein …
# Experiment: flow cytometry competition, rhLAG3 binding to Daudi cells; competitor MHCII
# Method: DAUDI cells express high levels of Major Histocompatibility Class II (MHCII) molecules, a natural ligand for LAG3, on the cell surface. DAUDI cells were used to screen for antibodies that inhibit binding of HIS-tagged (ACRO) or biotinylated recombinant human LAG3 protein (rhLAG3) to MHCII expressed on the cell surface.
# DAUDI cells were cultured in RPMI w/10% FCS Pen/Strep and Gln and split every 3-4 days at 10^5 cells/ml. Cells were washed 2× with FACS buffer (PBS w/2% FCS), […] at a final concentration of 1×10⁶ cells/ml and seeded at 100 μl per well on 96 well polypropylene plates. Plates were spun at 1500 rpm for 5 minutes and cell pellets were suspended in 50 μl FACS buffer containing 8 point 1:3 dilutions (2× concentrated) of anti-LAG3 antibody variants, starting from high concentration of −600 nM. 50 μl FACS buffer containing 10-20 μg/ml of the HIS-tagged rhLAG3 protein or 40 μg/ml of the biotinylated rhLAG3 protein were then added to the cells. Cell were then incubated in ice for 1 hr, washed with FACS buffer and incubated for 1 hr in ice with 50 μl FACS buffer containing 2 μg/ml R-Phycoerythrin-conjugated Streptavidin (eBiosciences) or 1 μg/ml R-Phycoerythrin-conjugated anti-HIS IgG (Abcam). Cell were washed 2× with FACS buffer and fixed for 10 minutes in 200 μl PBS w/2% PFA prior to acquisition.
row,IC50 [nM],Binder
1,1,B1
2,1.2,B2
3,64.3,B3

# Target: T2, human LAG3 expressed on the cell …
# Experiment: flow cytometry, CHO cells expressing human LAG3
# Method: LAG3 antibody variants were tested in a fluorescence-activated cell sorting (FACS) cell-binding assay. Chinese Hamster Ovary (CHO) cells or HEK293T cells stably expressing the human target molecule LAG3 on the cell surface (CHO-LAG3, 293T-LAG3) were used to screen for cell binders by flow cytometry. Parental CHO or 293T cells were used as a negative control to determine background-binding levels. Cells were cultured in RPMI with 10% FCS Penicillin/Streptomycin (or Pen/Strep) and glutamine (or Gln) and split every 3-4 days at 10⁵ cells/ml.
# A mix of parental CHO cells and CHO-LAG3 cells (or 293T and 293T-LAG3 cells) was prepared as follows: Parental CHO cells were washed 2× in PBS then incubated in PBS containing 1 nM CellTrace™ Oregon Green488® (Life Technologies) at 37° C. for 30 minutes. […] Parental CHO cells and CHO-LAG3 cells were then mixed to obtain a 1:1 cell suspension and seeded at 100 μl per well on 96 well polypropylene plates. Plates were spun at 1500 rpm for 5 minutes and cell pellets were suspended in 50 μl FACS buffer containing 6-12 point dilutions of anti-LAG3 variants starting from concentrations of ˜100-200 nM antibody, dispensed using BioMekFX (Beckman Coulter). Cells were then incubated on ice for 1 hr, washed with FACS buffer and incubated for 1 hr on ice with 50 μl FACS buffer containing 2.5 μg/ml R-Phycoerythrin-conjugated Goat Anti-Human IgG (Jackson ImmunoResearch) or AF647-conjugated Goat Anti-mouse IgG (Life Technologies) dispensed using BioMekFX (Beckman Coulter). Cells were then washed 2× with FACS buffer and fixed for 10 minutes in 200 μl PBS with 2% PFA prior to fluorescence detection. Samples were acquired using a Beckton Dickinson LSRII FACS. Mean Fluorescence Intensity of LAG3 antibody binding was analyzed using Tree Star, Inc. FlowJo® software.
row,Kd [nM],Binder
1,1.92,B1
2,1.06,B2
3,18,B3

# Target: T3, human LAG3-Fc (R&D Systems #2319-L3)
# Experiment: SPR (Biacore), antibody captured by anti-Flag, LAG3-Fc as analyte, 25 C
# Method: Anti-Flag M2 IgG (Sigma-Aldrich # F9291) was immobilized onto a CMS chip (GE Life Sciences) using amine coupling chemistry (from Amine Coupling Kit, GE Life Sciences). The immobilization steps were carried out at a flow rate of 25 μL/min in 1×HBS-EP+ buffer (GE Life Sciences; 10×Stock diluted before use). The sensor surfaces were activated for 7 min with a mixture of NHS (0.05 M) and EDC (0.2 M). The Anti-Flag M2 IgG was injected over all 4 flow cells at a concentration of 25 μg/mL in 10 mM sodium acetate, pH 4.5, for 7 min. Ethanolamine (1 M, pH 8.5) was injected for 7 min to block any remaining activated groups. An average of 12,000 response units (RU) of capture antibody was immobilized on each flow cell.
# Off-rate and kinetic binding experiments were performed at 25° C. using 1×HBS-EP+buffer. Test and control antibodies were injected over the Anti-Flag surface at concentrations of 5-10 μg/mL for 12 seconds at a flow rate of 10 μL/min on flow cells 2, 3 and 4, followed by a buffer wash for 30 seconds at the same flow rate. Kinetic characterization of antibody samples was carried out with a single concentration of antigen (for off-rate ranking) or a dilution series of antigen (for kinetic characterization) and 1 injection of 0 nM antigen. After capturing ligand (antibody) on the anti-Flag surface, the analyte (human LAG3-Fc, R&D Systems #2319-L3; or cynomolgus LAG3-Fc, accession # NC 022282.1) was bound at 50, 25, 12.5, 6.25, and 0 nM for 180 seconds, followed by a 600 second dissociation phase at a flow rate of 50 μl/min Between each ligand capture and analyte binding cycle, regeneration was carried out using 2 injections of 10 mM glycine pH 2.0 for 30 seconds at 30 μL/min, followed by a 30 second buffer wash step.
# The data were fit with the Biacore T200 Evaluation software, using a 1:1 Langmuir binding model. KD (affinity, nM) was determined as a ratio of the kinetic rate constants calculated from the fits of the association and dissociation phases.
Kd [nM],koff [s⁻¹],kon [M⁻¹ s⁻¹],Binder
0.64,0.000302,472000,B1
0.676,0.000536,794000,B2
10.3,0.000515,50200,B3
